B1: Carboxy-terminus of Hsc70-interacting protein (CHIP), untagged, wild type [human] / His-tagged UbcH5a [not stated] (parent complex)
chain 1: MKGKEEKEGGARLGAGGGSPEKSPSAQELKEQGNRLFVGRKYPEAAACYGRAITRNPLVAVYYTNRALCYLKMQQHEQALADCRRALELDGQSVKAHFFLGQCQLEMESYDEAIANLQRAYSLAKEQRLNFGDDIPSALRIAKKKRWNSIEERRIHQESELHSYLSRLIAAERERELEECQRNHEGDEDDSHVRAQQACIEAKHDKYMADMDELFSQVDEKRKKRDIPDYLCGKISFELMREPCITPSGITYDRKDIEEHLQRVGHFDPVTRSPLTQEQLIPNLAMKEVIDAFISENGWVEDY
chain 2: not shown
B2: GST-IRF-1 (pDEST-15-codon optimized IRF-1) [not stated] / Carboxy-terminus of Hsc70-interacting protein (CHIP), His-tagged, wild type [human] (parent complex)
chain 1: MPITRMRMRPWLEMQINSNQIPGLIWINKEEMIFQIPWKHAAKHGWDINKDACLFRSWAIHTGRYKAGEKEPDPKTWKANFRCAMNSLPDIEEVKDQSRNKGSSAVRVYRMLPPLTKNQRKERKSKSSRDAKSKAKRKSCGDSSPDTFSDGLSSSTLPDDHSSYTVPGYMQDLEVEQALTPALSPCAVSSTLPDWHIPVEVVPDSTSDLYNFQVSPMPSTSEATTDEDEEGKLPEDIMKLLEQSEWQPTNVDGKGYLLNEPGVQPTSVYGDFSCKEEPEIDSPGGDIGLSLQRVFTDLKNMDATWLDSLLTPVRLPSIQAIPCAP
chain 2: B1 chain 1
B3: Carboxy-terminus of Hsc70-interacting protein (CHIP), His-tagged, wild type [human] / GST-IRF-1 (pDEST-15-codon optimized IRF-1) [not stated] (parent complex)
chain 1: B1 chain 1
chain 2: B2 chain 1
B4: Hsp70 C-terminal peptide GPTIEEVD (residues 634-641), biotin-SGSG at the N terminus [modified: biotin at the N terminus; biotin at the N terminus] [not stated] / Carboxy-terminus of Hsc70-interacting protein (CHIP), His-tagged, wild type … (parent complex)
chain 1: SGSGGPTIEEVD
chain 2: B1 chain 1

Variants of: B1
Assay: AlphaScreen; value read at the highest dose, 100 ng CHIP; untagged CHIP on protein A acceptor beads through anti-CHIP N-term pAb, His-UbcH5a on Nickel-chelate donor beads; parent: 2.3e+04; read off a plot

Variant	response
chain 1 K30A	~9000 AlphaScreen Units

Variants of: B2
Assay: microtitre-well binding assay; lower panel; value read at the highest dose, about 130 ng GST-IRF-1; His-CHIP coated on wells, GST-IRF-1 in the mobile phase; parent: 120; read off a plot

Variant	response
chain 2 K30A	~110 RLU

Variants of: B3
Assay: microtitre-well binding assay (luminometer, anti-CHIP antibody); upper panel; value read at the highest dose, about 130 ng CHIP; GST-IRF-1 immobilized, His-CHIP in the mobile phase; parent: 18; read off a plot

Variant	response
chain 1 K30A	~12 RLU

Variants of: B4
Assay: microtitre-well binding assay (streptavidin-HRP detection); value read at the highest dose, 20 uM Hsp70 wt peptide; His-CHIP coated on wells, biotin peptide in the mobile phase; parent: 45; read off a plot

Variant	response
chain 2 K30A	~7 RLU

— article PMC4638040 (2015)
